Measurements reported in patent publication US7799901B2, “Modulators of the function of FAS receptors and other proteins” (Yeda Research and Development Co. Ltd., priority 1995, dated 2010).

T1: GST-MORT-1 fusion protein (Homo sapiens, UniProt Q13158)
T1 construct: made in house
T1 sequence (Q13158 1-208): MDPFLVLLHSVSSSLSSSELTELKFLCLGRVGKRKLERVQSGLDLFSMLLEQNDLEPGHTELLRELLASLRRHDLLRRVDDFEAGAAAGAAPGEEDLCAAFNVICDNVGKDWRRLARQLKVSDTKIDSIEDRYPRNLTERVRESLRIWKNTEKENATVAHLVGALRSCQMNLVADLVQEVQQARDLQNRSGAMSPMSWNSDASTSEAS

B1: MACHα1 (C360S): MACHα1 mutant in which the catalytic cysteine Cys360 is replaced by Ser (protein)
chain: MDFSRNLYDIGEQLDSEDLASLKFLSLDYIPQRKQEPIKDALMLFQRLQEKRMLEESNLSFLKELLFRINRLDLLITYLNTRKEEMERELQTPGRAQISAYRVMLYQISEEVSRSELRSFKFLLQEEISKCKLDDDMNLLDIFIEMEKRVILGEGKLDILKRVCAQINKSLLKIINDYEEFSKERSSSLEGSPDEFSNGEELCGVMTISDSPREQDSESQTLDKVYQMKSKPRGYCLIINNHNFAKAREKVPKLHSIRDRNGTHLDAGALTTTFEELHFEIKPHDDCTVEQIYEILKIYQLMDHSNMDCFICCILSHGDKGIIYGTDGQEAPIYELTSQFTGLKCPSLAGKPKVFFIQASQGDNYQKGIPVETDSEEQPYLEMDLSSPQTRYIPDEADFLLGMATVNNCVSYRNPAEGTWYIQSLCQSLRERCPRGDDILTILTEVNYEVSNKDDKKNMGKQMPQPTFTLRKKLVFPSD
B2: MACHβ1: MACH isoform, cDNA SEQ ID NO: 4, amino acid SEQ ID NO: 5; lacks the CED3/ICE homology region (protein)
chain: MDFSRNLYDIGEQLDSEDLASLKFLSLDYIPQRKQEPIKDALMLFQRLQEKRMLEESNLSFLKELLFRINRLDLLITYLNTRKEEMERELQTPGRAQISAYRVMLYQISEEVSRSELRSFKFLLQEEISKCKLDDDMNLLDIFIEMEKRVILGEGKLDILKRVCAQINKSLLKIINDYEEFSKERSSSLEGSPDEFSNDFGQSLPNEKQTSGILSDHQQSQFCKSTGESAQTSQH

What was measured:
MACHα1 (C360S) = biological target: T2, MACHα1 (C360S) (Homo sapiens, UniProt Q14790, C360S); test: Two-hybrid β-galactosidase filter assay (FIG. 5), binding to MACHα1 (C360S); conditions: two hybrid test
T2 construct: expressed in transfected cells; host or cells: SFY526 yeast
Procedure: In FIG. 5, there is shown the results of the interaction of MORT-1 and MACH within transfected yeast cells. Briefly, MORT-1 and MACHβ1 and their deletion constructs, as well as MACHα1, a MACHα1 mutant in which the catalytic cysteine Cys360 is replaced by Ser (MACHα1 (C360S)) and the intracellular domain of human FAS-R (Fas-IC), were expressed within transfected SFY526 yeast in Gal4 DNA binding domain and activation domain constructs (pGBT9 and pGAD-GH). Their interaction was assessed by a β-galactosidase expression filter assay as described in Boldin et al (1995b). The results are presented in terms of the time required for the development of strong color. […] None of the inserts examined interacted with a number of tested negative controls, including the intracellular domains of human p55 TNF receptor, p75 TNF receptor and CD40, and lamin, cyclin D and ‘empty’ Gal4 vectors. MACHβ1 was cloned by two hybrid screening of a Gal4 AD-tagged human B cell library (Durfee et al, 1993) for proteins that bind to MORT-1, using the HF7c Yeast reporter strain. Except where otherwise indicated, all experimental procedures for the findings presented are as described above (see also Boldin et al, 1995). […] MACHβ1 also self-associated in the transfected yeast. […] Expression of MACHβ1 molecules in mammalian cells yielded a 34 kDa protein that bound to MORT-1 molecules co-expressed with it. […]

[1] = biological target: T1, GST-MORT-1 fusion protein; test: In vitro binding to GST-MORT-1 on glutathione-agarose beads
Description: It has been shown also to contribute to, though not to suffice in, the self association of MORT-1 (see Example 1). […] To further assess the involvement of the MORT modules in these interactions, deletion mutants of MACHβ1, fused with the FLAG octapeptide (FLAG-MACHβ1), were expressed in HeLa cells and assessed for their binding in vitro to bacterial-produced […] fusion protein (GST-MORT-1). […] FIGS. 9A and 9B show the results (autoradiograms) of the in vitro interaction of MACHβ1 and its deletion mutants with MORT-1. Briefly, 35 [S] metabolically labeled MACHβ1, MACHβ1 fused at its N-terminus to the FLAG octapeptide (FLAG-MACHβ1), C-terminus truncation mutants of FLAG-MACHβ1, and, as a control, luciferase, were produced in transfected HeLa cells. Expression was done using a tetracycline-controlled expression vector, in a HeLa cell clone (HtTA-1) that expresses a tetracycline-controlled transactivator.
The antibodies used are as follows: Rabbit anti-MACHβ1 and anti-MORT1 antisera were raised against GST-MACHβ1 and GST-MORT1 fusion proteins. Mouse monoclonal antibodies against the FLAG octapeptide (M2) and against FAS/APO1 (CH11, Yonehara et al, 1989) were purchased from Eastman Kodak and Oncor (Gaithersburg, Md.) respectively. […]

Molecule	binding to MACHα1 (C360S) in transfected yeast (MACHα1 (C360S))	in vitro binding to GST-MORT-1 fusion protein [1]
B1	bound	–
B2	–	able to bind
